In the assay the target is abnormal human PrP (disease associated PrP, including PrPSc) from vCJD brain homogenate, blood or ur (human, UniProt P04156 23-230).

B1: ICSM18 anti-PrP antibody (D-Gen Ltd, product code 0130-01810), biotinylated (antibody, V domains shown)
VH: EVQLQQSGPELVKPGSSVKISCKASRNTFTDYNLDWVKQSHGKTLEWIGNVYPNNGVTGYNQKFRGKATLTVDKSSSTAYMELHSLTSEDSAVYYCALYYYDVSYWGQGTLVTVSA
VL: QIVLTQSPAIMSASPGEKVTMTCSASSSVSYMHWYQQKSGTSPKRWIYDTSKLASGVPARFSGSGSGTSYSLTISSMEAEDAATYFCHQWRSNPYTFGGGTKLEIKR
In the case of B1, the “ratio relative to cut off” value was found to be 1.17.

Values taken from patent US20160320413A1 (D GEN, published 2016).
